B1: CPEB3 Ribozyme (parent)
chain: GGGGGCCACAGCAGAAGCGUUCACGUCGCGGCCCCUGUCAGAUUCUGGUGAAUCUGCGAAUUCUGCUGU

This data set covers variants of B1. Briefly: self-cleavage, relative activity (ratio to wild type); higher = more cleavage; co-transcriptional.
Turning to G28U C57G, the self-cleavage is 0.161.
For G28U C57A, the self-cleavage was determined as 0.188.
As for G28C U67A, the self-cleavage worked out at 0.182.
Turning to G28U G37A, the self-cleavage stood at 0.206.
The result for G28U G31A reads 0.24; that for C29A U69G, 0.864.
Take C29A U69A: the self-cleavage worked out at 0.91.
On to C27G U55C, for which the self-cleavage worked out at 0.137.
With C29G U61C, the self-cleavage stood at 0.221.
As to C29G U61G, the self-cleavage turned out to be 0.348.
G28U A51U: the self-cleavage was determined as 0.182.
The value for C27U U36C was 0.201; that for C29U G31C was 0.158; that for C29G G58A was 0.327.
For the variant C27G C63A, the self-cleavage came out at 0.197.
On to C27A G48A, for which the self-cleavage amounted to 0.745.
For the variant C27A G48U, the self-cleavage was 0.706.
Consider C27A G48C, for which the self-cleavage is 0.652.
As to G28A G30U, the self-cleavage worked out at 0.155.
On to G28A G30A, for which the self-cleavage was 0.156.
For G28A C34G, the self-cleavage came to 0.139.
Regarding G28A C34U, the self-cleavage worked out at 0.244.
The value for C27U U53A was 0.25; that for C27U U53G was 0.18; that for C29U G56C was 0.26.
For the variant G28C U49G, the self-cleavage was found to be 0.182.
The value for G28C U49A was 0.126; that for G28U A52G was 0.18.
The result for G28C U44G reads 0.191; that for G28A A52U, 0.276; that for G28A A52C, 0.182.
Regarding G28A C66A, the self-cleavage amounted to 0.189.
For the variant G28A C66U, the self-cleavage turned out to be 0.165.
In the case of C29G G30U, the self-cleavage was found to be 0.219.
The value for C29G A59G was 0.675; that for C27U G28A was 0.126; that for C29G U69G was 0.703.
With C29A C57U, the self-cleavage was 0.247.
As to C27U U55G, the self-cleavage is 0.188.
The value for G28U G68A was 0.195.
The value for G28U G68U was 0.208.
G28U U36A: the self-cleavage amounted to 0.168.
The value for G28U U36G was 0.106; that for G28U A60U was 0.138.
On to G28A C54A, for which the self-cleavage amounted to 0.175.
Consider C27G A60C, for which the self-cleavage was 0.238.
The value for C27A U61A was 0.28; that for G28U A42C was 0.153; that for G28C U64C was 0.194.
The result for G28C U55A reads 0.241; that for C27G G48U, 0.163.
For C27G G48C, the self-cleavage is 0.241.
The result for C29U G41U reads 0.191.
Regarding C29G C34A, the self-cleavage amounted to 0.227.
C29G C34U: the self-cleavage is 0.495.
Take C27U A40C: the self-cleavage amounted to 0.198.
With C29U C35G, the self-cleavage came out at 0.237.
C29U C35A: the self-cleavage came out at 0.186.
Regarding G28A C39G, the self-cleavage came out at 0.157.
The result for C29G U64A reads 0.191; that for G28C U61G, 0.229.
G28C U61A: the self-cleavage stood at 0.256.
The result for C29A C32A reads 0.297; that for C27G G65C, 0.234; that for C27G G65U, 0.164.
For the variant C27U G56U, the self-cleavage amounted to 0.197.
The value for G28U U62C was 0.127.
As for C27G C54A, the self-cleavage came to 0.187.
As to G28U U61A, the self-cleavage is 0.204.
The result for G28C G56A reads 0.181; that for G28C G56C, 0.192; that for C29U G47U, 0.631.
Regarding C27G G47U, the self-cleavage was determined as 0.17.
As for C27G G47A, the self-cleavage turned out to be 0.265.
As to C29A U43G, the self-cleavage came out at 0.364.
C29A U43C: the self-cleavage came to 0.465.
For the variant C27A G56A, the self-cleavage was found to be 0.276.
For the variant G28U G65U, the self-cleavage turned out to be 0.2.
The result for G28U G65A reads 0.146; that for C27G C34A, 0.207.
For C27U U43C, the self-cleavage was 0.285.
As for G28U C45G, the self-cleavage was 0.162.
As for C29A A51C, the self-cleavage turned out to be 0.534.
Turning to C29U A59U, the self-cleavage worked out at 0.232.
As for C29U C66G, the self-cleavage came to 0.206.
The result for G28U U43G reads 0.0809; that for G28U U43A, 0.135; that for G28U C34G, 0.219.
As for G28U C34U, the self-cleavage was 0.204.
Consider G28C C54A, for which the self-cleavage worked out at 0.151.
For C29A U49A, the self-cleavage turned out to be 0.805.
The result for G28U C35U reads 0.192; that for C29U C54A, 0.169.
Regarding C29G U38A, the self-cleavage came to 0.316.
In the case of G28U U44A, the self-cleavage was found to be 0.135.
For G28U U44C, the self-cleavage was found to be 0.181.
Consider C29A A60G, for which the self-cleavage amounted to 0.334.
With C29A A60C, the self-cleavage is 0.307.
For the variant C27G C45U, the self-cleavage amounted to 0.229.
Take C27G C45A: the self-cleavage worked out at 0.17.
Regarding C29A U55G, the self-cleavage worked out at 0.323.
On to C27G A51C, for which the self-cleavage is 0.187.
As for C29A G68A, the self-cleavage worked out at 0.914.
With C27G G31U, the self-cleavage was found to be 0.2.
Regarding G28A C63U, the self-cleavage was determined as 0.195.
As for C29A C33G, the self-cleavage came to 0.281.
Take C29A C33U: the self-cleavage came out at 0.594.
Take C29U G48C: the self-cleavage was determined as 0.61.
As to G28C U46C, the self-cleavage amounted to 0.131.
G28C U46G: the self-cleavage was determined as 0.118.
For G28C U46A, the self-cleavage turned out to be 0.173.
On to C27U C57U, for which the self-cleavage is 0.204.
Take G28C G30U: the self-cleavage was 0.2.
Regarding C27A U43C, the self-cleavage was 0.404.
C27U A60U: the self-cleavage was 0.205.
Take C29G A52C: the self-cleavage is 0.467.
The result for C27A U67G reads 0.635; that for G28U C29G, 0.129; that for C29A G41A, 0.215.
On to C29A G41U, for which the self-cleavage came to 0.296.
For G28U G56U, the self-cleavage amounted to 0.137.
As to G28U G56C, the self-cleavage was 0.163.
Consider G28U G56A, for which the self-cleavage came to 0.14.
In the case of G28C U38G, the self-cleavage worked out at 0.133.
Turning to G28C U38A, the self-cleavage came to 0.222.
For G28C A52C, the self-cleavage came to 0.198.
Regarding G28C A52G, the self-cleavage stood at 0.174.
The result for C29A G50C reads 0.71; that for C27U C63A, 0.165.
As for C27U C63G, the self-cleavage stood at 0.263.
With G28A G41U, the self-cleavage is 0.148.
G28A G41A: the self-cleavage turned out to be 0.178.
With G28C A60C, the self-cleavage stood at 0.217.
On to C27U U61A, for which the self-cleavage turned out to be 0.22.
Turning to C27U U61G, the self-cleavage is 0.277.
As to C27U U64A, the self-cleavage came to 0.161.
The value for C27U G31C was 0.143; that for C27U G48U was 0.504.
For the variant C27U G48A, the self-cleavage is 0.431.
C27G U64C: the self-cleavage amounted to 0.254.
For C27U G47A, the self-cleavage was 0.459.
With G28A G68A, the self-cleavage is 0.294.
On to C27A G58C, for which the self-cleavage came to 0.605.
Consider C27A U46C, for which the self-cleavage is 0.621.
The result for C29G G37A reads 0.178; that for C29G G37C, 0.169.
C29A U67G: the self-cleavage is 0.79.
C27U G41A: the self-cleavage worked out at 0.147.
Consider C29G C45U, for which the self-cleavage stood at 0.601.
C29G A42C: the self-cleavage was determined as 0.347.
The value for C27G G37A was 0.135.
The value for C27G G37U was 0.165; that for C27U C35G was 0.14; that for G28A C35G was 0.188.
As to C29A A59C, the self-cleavage is 0.274.
As to C29A A59U, the self-cleavage was determined as 0.283.
The result for C27U C34G reads 0.24.
For G28A C45U, the self-cleavage came out at 0.202.
The value for G28A U36A was 0.154.
For the variant G28U C32U, the self-cleavage amounted to 0.226.
Consider G28U C32G, for which the self-cleavage was 0.217.
In the case of C27U G37A, the self-cleavage amounted to 0.187.
The result for C29U G30A reads 0.283; that for C29A C45A, 0.635.
On to C29A C45G, for which the self-cleavage turned out to be 0.605.
As for C29U C63A, the self-cleavage amounted to 0.176.
In the case of C29U C63G, the self-cleavage was determined as 0.198.

For the origin of these results see the RNAGym collection of RNA variant scans (doi:10.7554/elife.80360).
